According to patent US20100009896A1:
Values belong to the substance of their own block, whether it stands above or below them.

Legend:
[1] = target: Carbonic anhydrase II (bCAII), from bovine erythrocytes (bovine) (UniProt P00921); assay: fluorescence polarization; 6 µM FITC-peptide titrated with bCAII 0.2-800 µM in PBS + 3% DMSO
[2] = target: Carbonic anhydrase II (bCAII), from bovine erythrocytes (bovine) (UniProt P00921); assay: SPR
[3] = target: Carbonic anhydrase II (bCAII), from bovine erythrocytes (bovine) (UniProt P00921); assay: SPR KD of the triligand against SPR KD of the biligand
[4] = target: human carbonic anhydrase II (hCAII) (human) (UniProt P00918); assay: as above
[5] = target: Carbonic anhydrase II (bCAII), from bovine erythrocytes (bovine) (UniProt P00921); assay: SPR Biacore T100; bCAII immobilised on CM5, triligand as analyte 0.1-162 nM, 1:1 fit
[6] = target: human carbonic anhydrase II (hCAII) (human) (UniProt P00918); assay: SPR Biacore T100; hCAII immobilised on CM5, triligand as analyte 0.1-162 nM, 1:1 fit
[7] = target: Carbonic anhydrase II (bCAII), from bovine erythrocytes (bovine) (UniProt P00921); assay: SPR Biacore T100; bCAII immobilised on CM5
[8] = target: Carbonic anhydrase II (bCAII), from bovine erythrocytes (bovine) (UniProt P00921); assay: SPR KD of the biligands against fluorescence polarization KD of the anchor ligand
[9] = target: Carbonic anhydrase II (bCAII), from bovine erythrocytes (bovine) (UniProt P00921); assay: SPR Biacore T100; bCAII immobilised on CM5, biligand as analyte 2 nM-5 µM, 1:1 fit
[10] = target: Carbonic anhydrase II (bCAII), from bovine erythrocytes (bovine) (UniProt P00921); assay: SPR Biacore T100; bCAII immobilised on CM5, branched biligand as analyte 0-1656 nM
[11] = target: Carbonic anhydrase II (bCAII), from bovine erythrocytes (bovine) (UniProt P00921); assay: SPR KD of the biligand against fluorescence polarization KD of the anchor ligand
[12] = target: Carbonic anhydrase II (bCAII), from bovine erythrocytes (bovine) (UniProt P00921); assay: dot blot; antigen spotted on nitrocellulose, biotinylated biligand anchor in 0.1% serum, streptavidin-HRP
[13] = target: human carbonic anhydrase II (hCAII) (human) (UniProt P00918); assay: as above

Sequence of Carbonic anhydrase II (bCAII), from bovine erythrocytes (bovine) (P00921 2-260 limits assumed): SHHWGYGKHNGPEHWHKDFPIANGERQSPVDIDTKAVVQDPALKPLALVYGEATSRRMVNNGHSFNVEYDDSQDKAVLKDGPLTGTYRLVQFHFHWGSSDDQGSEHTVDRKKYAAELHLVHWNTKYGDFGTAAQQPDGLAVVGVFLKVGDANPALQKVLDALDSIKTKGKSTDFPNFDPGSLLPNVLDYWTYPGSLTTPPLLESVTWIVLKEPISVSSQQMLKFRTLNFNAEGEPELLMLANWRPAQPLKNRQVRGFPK

Kd [1]: 500000 nM
Substance: fluoresceinated anchor ligand lklwfk-(D-Pra) (peptide)

Kd [7]: 1000 nM | fold affinity enhancement over anchor ligand [8]: 150 fold | Kd [9]: 11000 nM
Substance: biligand lklwfk-Tz1-kiwiG (peptide)

The remaining lines, values behind:

Substance: triligand rfviln-Tz2-kwlwGl-Tz1-kfwlkl (peptide)
Kd [2]: 60 nM | fold affinity enhancement over biligand [3]: 50 fold | fold affinity enhancement over biligand [4]: 50 fold | Kd [5]: 64 nM | Kd [6]: 45 nM

Substance: branched biligand capture agent vkw(Tz1)fw-kfwlkl (peptide)
Kd [10]: 500 nM

Substance: biligand kwlwGl-Tz1-kfwlkl (peptide)
Kd [7]: 1000 nM | fold improvement of dissociation constant over anchor ligand lklwfk-(D-Pra) [11]: 150 fold | Kd [9]: 3000 nM

Substance: biotinylated biligand anchor Biotin-(EG)5-(D-Pra)-kwlwGl-Tz1-kfwlkl (FIG. 14) (peptide)
fold reduction of dot blot sensitivity against the triligand [12]: 10 fold | fold reduction of dot blot sensitivity against the triligand [13]: 10 fold
